Here are results for three molecules from patent US20100330649A1.

Series [1] has as its target His8-cytb5R (soluble form of human cytochrome b5 reductase with N-terminal His8 tag) (human) (UniProt P00387). Description: cell-based or functional assay.
For series [2], the target named is His8-cytb5-sd (human cytochrome b5 soluble domain with N-terminal His8 tag) (UniProt P00167).
Series [3] deals with His8-MBP-fl-cytb5 fusion protein.

Chain of UniProt P00167 (P00167 1-97): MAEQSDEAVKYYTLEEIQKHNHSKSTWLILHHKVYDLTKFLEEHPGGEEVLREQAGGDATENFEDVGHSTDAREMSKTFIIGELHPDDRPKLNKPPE
Chain of UniProt P00387 (P00387 24-301): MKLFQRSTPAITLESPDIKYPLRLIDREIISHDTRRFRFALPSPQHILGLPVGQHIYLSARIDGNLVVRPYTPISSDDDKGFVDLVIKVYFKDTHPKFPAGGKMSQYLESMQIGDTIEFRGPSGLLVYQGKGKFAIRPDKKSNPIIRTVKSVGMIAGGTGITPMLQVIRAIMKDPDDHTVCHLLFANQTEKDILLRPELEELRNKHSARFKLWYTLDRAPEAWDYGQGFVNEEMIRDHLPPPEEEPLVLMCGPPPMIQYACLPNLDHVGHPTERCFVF

As for “His8-cytb5-sd (human cytochrome b5 soluble domain with N-terminal His8 tag) (from UniProt P00167 1-97)”, the V/K, µM^-1 s^-1 (steady-state reduction of cytb5 by His8-cytb5R with NADH) in series [1] is 5e+06 M⁻¹ s⁻¹.

As for “His8-cytb5R (soluble form of human cytochrome b5 reductase with N-terminal His8 tag)”, in series [2], the Km, µM (steady-state reduction of cytb5 by His8-cytb5R with NADH) was found to be 5 µM and the Vmax, s^-1 (steady-state reduction of cytb5 by His8-cytb5R with NADH, absorbance at 413 nm) was 25 s⁻¹.

B1: tobacco etch virus (TEV) protease (protein)
chain: GESLFKGPRDYNPISSTICHLTNESDGHTTSLYGIGFGPFIITNKHLFRRNNGTLLVQSLHGVFKVKNTTTLQQHLIDGRDMIIIRMPKDFPPFPQKLKFREPQREERICLVTTNFQTKSMSSMVSDTSCTFPSSDGIFWKHWIQTKDGQCGSPLVSTRDGFIVGIHSASNFTNTNNYFTSVPKNFMELLTNQEAQQWVSGWRLNADSVLWGGHKVFMSKPEEPFQPVKEATQLMNE
For B1, in series [3], the “site-specific proteolysis of the linker (SDS-PAGE)” value is reported as “a satisfactory reaction was obtained at a ratio of His8-MBP-fl-cytb5 to TEV protease of 10:1 (reaction completed in 30 min)”.
